Measured values taken from patent US20120171210A1, “METHODS AND COMPOSITIONS FOR INHIBITING C-MET DIMERIZATION AND ACTIVATION” (Genentech, Inc., priority 2003, published 2012).

Legend:
Met = Met (Homo sapiens, UniProt P08581); test: Met tyrosine phosphorylation in A549 cells (immunoprecipitation / phosphotyrosine immunoblot); format: cell-based; parameters: endogenous in cells; host or cells: A549 (lung carcinoma); conditions: A549 cells transfected with Met deletion mutants, vs mock
Method: (§1) Cell lines were obtained from American Type Culture Collection (ATCC). 293 cells were maintained in DMEM supplemented with 10% FBS (Sigma), penicillin/streptomycin (GIBCO), and glutamine A549, H441, and MDA-MB-435 cells were maintained in 50:50 DMEM/F12 (Cellgro) supplemented with 10% FBS, penicillin/streptomycin, and glutamine Cells were transfected with 1-12 μg of the indicated constructs using Lipofectamine 2000 (Invitrogen) according to manufacturer's instructions. Twenty-four hrs later cells were harvested with 1% NP40 lysis buffer containing Complete protease inhibitor cocktail tablet and phosphatase inhibitor cocktail 2 (Roche and Sigma, respectively). For Met tyrosine phosphorylation and MAPK phosphorylation studies, cells were serum-starved for 2 hr with 0.5% BSA. Cells treated with 10 μg/ml anti-Met 5D5-Fab or rSema were incubated for an additional 1 hr prior to lysis. Cell debris was centrifuged and the supernatant was precleared with Protein A Sepharose (Sigma) or Protein G-Plus agarose beads (Santa Cruz) for 1 hr. 500 μg of lysates was then immunoprecipitated with 10 μg 5D5 antibody (Genentech) or 35 ul of Met (C-28) agarose conjugate (Santa Cruz) overnight at 4° C. with rotation. For HGF binding studies, 500 μg of lysates were incubated with 5 μg scHGF or HGF followed by immunoprecipitation with 1 μg of V5 antibody. Protein A or G beads were added for an additional 2 hrs before immunoprecipitates were washed 3 times with 1% NP40 lysis buffer. After addition of 2× sample buffer with 10 mM DTT, the samples were run on 4-12% Tris-glycine gels (Invitrogen). […] Proteins were detected by enhanced chemiluminescence (ECL-Plus, Amersham).
(§2) Human tumor cells were treated with increasing concentrations of rSema and analyzed for Met tyrosine phosphorylation and downstream activation of mitogen activated protein kinase (MAPK) upon HGF stimulation. […]

MAPK = MAPK phosphorylation in A549 cells (immunoblot); format: cell-based, Human; conditions: A549 cells transfected with Met deletion mutants, vs mock
Method: as §1, §2

Chain of Met (P08581 308-1390, one chain of several): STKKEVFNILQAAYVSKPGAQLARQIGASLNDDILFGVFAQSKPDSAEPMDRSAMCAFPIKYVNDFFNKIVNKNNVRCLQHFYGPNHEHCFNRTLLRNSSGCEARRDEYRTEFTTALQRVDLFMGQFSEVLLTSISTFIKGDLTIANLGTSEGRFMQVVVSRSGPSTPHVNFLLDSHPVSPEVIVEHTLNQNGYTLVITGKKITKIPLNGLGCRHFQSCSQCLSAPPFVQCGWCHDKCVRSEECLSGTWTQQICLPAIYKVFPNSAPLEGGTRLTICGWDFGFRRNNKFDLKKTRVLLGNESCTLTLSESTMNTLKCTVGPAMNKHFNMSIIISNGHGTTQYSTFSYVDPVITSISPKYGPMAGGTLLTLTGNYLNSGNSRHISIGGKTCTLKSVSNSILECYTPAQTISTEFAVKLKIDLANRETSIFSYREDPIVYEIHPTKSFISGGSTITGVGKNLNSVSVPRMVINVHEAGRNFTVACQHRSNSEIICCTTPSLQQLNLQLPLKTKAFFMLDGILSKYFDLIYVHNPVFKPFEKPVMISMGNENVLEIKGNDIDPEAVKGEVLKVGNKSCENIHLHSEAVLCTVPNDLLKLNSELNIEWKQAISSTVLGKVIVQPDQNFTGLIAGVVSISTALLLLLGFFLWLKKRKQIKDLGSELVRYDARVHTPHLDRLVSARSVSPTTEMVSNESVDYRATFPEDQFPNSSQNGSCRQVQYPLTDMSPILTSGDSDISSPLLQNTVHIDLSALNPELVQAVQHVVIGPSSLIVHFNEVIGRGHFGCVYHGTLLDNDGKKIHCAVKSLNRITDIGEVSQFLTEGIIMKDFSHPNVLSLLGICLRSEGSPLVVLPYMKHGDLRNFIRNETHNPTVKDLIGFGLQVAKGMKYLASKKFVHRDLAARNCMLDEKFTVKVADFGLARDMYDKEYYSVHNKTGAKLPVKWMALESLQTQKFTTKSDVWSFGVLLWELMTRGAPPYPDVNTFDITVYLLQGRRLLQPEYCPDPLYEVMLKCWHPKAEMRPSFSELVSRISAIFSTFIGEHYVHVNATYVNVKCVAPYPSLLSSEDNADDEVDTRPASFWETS

endogenous Met tyrosine phosphorylation in transfectants (Met): attenuation
B1: EC-WT: membrane-bound extracellular Met construct containing the Sema domain, V5/His tagged, expressed by transfection (protein, UniProt P08581 25-932, looked up)
extracellular domain: ECKEALAKSEMNVNMKYQLPNFTAETPIQNVILHEHHIFLGATNYIYVLNEEDLQKVAEYKTGPVLEHPDCFPCQDCSSKANLSGGVWKDNINMALVVDTYYDDQLISCGSVNRGTCQRHVFPHNHTADIQSEVHCIFSPQIEEPSQCPDCVVSALGAKVLSSVKDRFINFFVGNTINSSYFPDHPLHSISVRRLKETKDGFMFLTDQSYIDVLPEFRDSYPIKYVHAFESNNFIYFLTVQRETLDAQTFHTRIIRFCSINSGLHSYMEMPLECILTEKRKKRSTKKEVFNILQAAYVSKPGAQLARQIGASLNDDILFGVFAQSKPDSAEPMDRSAMCAFPIKYVNDFFNKIVNKNNVRCLQHFYGPNHEHCFNRTLLRNSSGCEARRDEYRTEFTTALQRVDLFMGQFSEVLLTSISTFIKGDLTIANLGTSEGRFMQVVVSRSGPSTPHVNFLLDSHPVSPEVIVEHTLNQNGYTLVITGKKITKIPLNGLGCRHFQSCSQCLSAPPFVQCGWCHDKCVRSEECLSGTWTQQICLPAIYKVFPNSAPLEGGTRLTICGWDFGFRRNNKFDLKKTRVLLGNESCTLTLSESTMNTLKCTVGPAMNKHFNMSIIISNGHGTTQYSTFSYVDPVITSISPKYGPMAGGTLLTLTGNYLNSGNSRHISIGGKTCTLKSVSNSILECYTPAQTISTEFAVKLKIDLANRETSIFSYREDPIVYEIHPTKSFISGGSTITGVGKNLNSVSVPRMVINVHEAGRNFTVACQHRSNSEIICCTTPSLQQLNLQLPLKTKAFFMLDGILSKYFDLIYVHNPVFKPFEKPVMISMGNENVLEIKGNDIDPEAVKGEVLKVGNKSCENIHLHSEAVLCTVPNDLLKLNSELNIEWKQAISSTVLGKVIVQPDQNFT
modifications: extracellular domain V5/His tag, membrane-bound
phospho-MAPK in transfectants (MAPK): attenuation
